According to paper PMC13147308, “Investigating the molecular mechanisms underlying the anti‐CRISPR function of AcrIIA13b protein”:

Molecular target: T1, AcrIIA13b (shAcrIIA13b) (Staphylococcus haemolyticus, UniProt A0AAX7FLQ9 1-129)
T1 sequence: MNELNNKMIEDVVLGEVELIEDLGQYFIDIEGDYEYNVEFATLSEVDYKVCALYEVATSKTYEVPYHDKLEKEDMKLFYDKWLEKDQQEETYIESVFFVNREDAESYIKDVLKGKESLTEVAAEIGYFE
Assay: EMSA; no Cas9; Cas9 EMSA: 100 mM NaCl, 50 mM Tris/HCl pH 8.0, 100 ug/mL BSA, 37 C (AcrIIA13b step at RT); 99 nM SauCas9, 90 nM sgRNA, 1.4 nM DNA, 4% gel 0.5x TBE
Conditions: protein: recombinant; tags: C-terminal His6 (pET21a); a tag-free version also exists; chain copies: 2; label: none (SYBR Gold stain); single strand, sgRNA hairpins

B1: SauCas9 sgRNA (structured_RNA)
RNA: GCAGCUGAUCAGGAACAGCGGUUUUAGUACUCUGGAAACAGAAUCUACUAAAACAAGGCAAAAUGCCGUGUUUAUCUCGUCAACUUGUUGGCGAGAUUU
- binding result: no binding
